Biological target: T1, human tumor necrosis factor-α (rHuTNF-alpha, Biosource) (human, UniProt P01375 77-233)
T1 construct: Bought recombinant protein coated on ELISA plates; The TNFα of the Biacore assay is not described further; also called TNFα; human TNFα
Test: solid-phase ELISA, Fab lysate on coated rHuTNF-alpha
Experimental: The Fab libraries were cloned into pTrcHis2A (Cat. No. V365-20, Invitrogen, Carlsbad, Calif.). Proteins were expressed in E. coli and solid-phase ELISA was used to assess Fab binding to human TNFα. Briefly, 96-well plates were coated overnight at 4° C. with 1 μg/ml of rHuTNF-alpha (Biosource, Camarillo, Calif.) in Carbonate-bicarbonate buffer, pH9.4. After washing in PBS with 0.05% (w/v) Tween-20, the wells were blocked with 1% (w/v) BSA in PBS for 1 hour at room temperature. After washing, plates were incubated with transformed E. coli cell lysate diluted in the assay buffer (1% BSA and 0.05% Tween-20 in 10 mM PBS) for 2 hours at room temperature. Various concentrations of infliximab (0.5, 1 and 2 ng/ml) were used as positive anti-Human Kappa Light Chain Biotin/anti-penta-His Biotin control. Plates were washed and incubated with ImmunoPure Goat Anti-Human Kappa Chain, Biotin Conjugated (Cat. No. 31780, Pierce Biotechnology, Rockford, Ill.) and Penta-His Biotin Conjugate (Cat. No. 34440, QIAGEN, Valencia, Calif.) diluted 1:2000 in the assay buffer for 1 hour at room temperature. Following another washing step, plates were probed for 1 hour at room temperature with 100 μL/well of Streptavidin POD (Cat. No. 1089153, Roche Applied Science, Indianapolis, Ind.) diluted 1:4000 in the assay buffer. Plates were further washed and then incubated with 3,3′,5,5′-tetramentylbenzidine (TMB, Cat. No. 34028, Pierce Biotechnology) for 30 minutes. Substrate development was stopped by addition of 100 μL/well TMB Stop Solution (Cat. No. 50-85-05, KPL, Gaithersburg, Md.) and the absorbance was measured at 450 nm via an automated plate spectrophotometer.

T1 sequence (P01375 77-233 limits assumed): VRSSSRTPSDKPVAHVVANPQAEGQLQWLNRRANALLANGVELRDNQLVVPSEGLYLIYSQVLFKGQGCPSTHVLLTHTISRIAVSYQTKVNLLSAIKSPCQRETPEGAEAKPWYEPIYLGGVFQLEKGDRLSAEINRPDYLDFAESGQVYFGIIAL

B1: SEQ ID NO 121 (Fab, V domains shown)
VH: EVQLVESGGGLVQPGGSLRLSCAASQFTFSNHYMNWVRQAPGKGLEWIGEIRSKSINSATHYAESVKGRFIISRDDNGNDLYLEMNSLKTEDTAEYYCAQNYYGSTYDYWGQGTLVTVS
VL: EIVLTQSPDFQSVTPKEKVTITCRASQFVGSSIHWYQQKPDQSPKLLIKYASESMSGVPSRFSGSGSGTDFTFTISSLEAEDAATYYCQQSHSWPFTFGPGTKVDIK
notes: Fab, E. coli lysate
  binding result: binds

B2: SEQ ID NO 25 (Fab, V domains shown)
VH: EVQLVESGGGLVQPGGSLRLSCRASQFIFSNHYMNWVRQAPGKGLEWIGEIRSKSINSATHYAESVKGRFIISRDGNKTSLYLEMNSLKTEDTAEYYCAQNYYGSTPDYWGQGTLVTVS
VL: EIVLTQSPDFQSVTPKEKVTITCRASQFVGSSIHWYQQKPDQSPKLLIKYASESMSGVPSRFSGSGSGTDFTFTISSLEAEDAATYYCQQSHSWPFTFGPGTKVDIK
notes: Fab, E. coli lysate
  binding result: binds

B3: SEQ ID NO 5 (Fab, V domains shown)
VH: EVQLTESGGGLVQPGGSLRLSCAASQFTFSNHWMNWVRQAPGKGLEWIGEIRSKSINSATHYAESVKGRFIISRDDNKNSLTLEMNSLKTEDTAEYYCARNYYGSTYDYWGQGTLVTVS
VL: EIVLTQSPDFQSVTPKEKVTITCRASQFVGSSIHWYQQKPDQSPKLLIKYASESMSGVPSRFSGSGSGTDFTFTISSLEAEDAATYYCQQSHSWPFTFGPGTKVDIK
notes: Fab, E. coli lysate
  binding result: binds

B4: SEQ ID NO 17 (Fab, V domains shown)
VH: EVQLTESGGGLVQPGGSLRLSCRASGFTFSNHWMNWVRQAPGKGLEWIGEIRSKSSYSATHYAESVKGRFIISRDDNKTSLYLEMNSLKTEDTAEYYCARNYYGSTPDYWGQGTLVTVS
VL: EIVLTQSPDFQSVTPKEKVTITCRASQFVGSSIHWYQQKPDQSPKLLIKYASESMSGVPSRFSGSGSGTDFTFTISSLEAEDAATYYCQQSHSWPFTFGPGTKVDIK
notes: Fab, E. coli lysate
  binding result: binds

B5: SEQ ID NO 24 (Fab, V domains shown)
VH: EVQLTESGGGLVQPGGSLRLSCAASGSIFSNHWMNWVRQAPGKGLEWIGEIRSKSINGATSYAESVKGRFIISRDDNGNSLTLEMNSLKTEDTAEYYCAQNYYGSTPDYWGQGTLVTVS
VL: EIVLTQSPDFQSVTPKEKVTITCRASQFVGSSIHWYQQKPDQSPKLLIKYASESMSGVPSRFSGSGSGTDFTFTISSLEAEDAATYYCQQSHSWPFTFGPGTKVDIK
notes: Fab, E. coli lysate
  binding result: binds

B6: SEQ ID NO 23 (Fab, V domains shown)
VH: EVQLTESGGGLVQPGGSLRLSCAASGSIFSNHWMNWVRQAPGKGLEWIGEIRSKSIYGATHYAESVKGRFIISRDDNGTDLYLEMNSLKTEDTAEYYCARNYYGSTYDYWGQGTLVTVS
VL: EIVLTQSPDFQSVTPKEKVTITCRASQFVGSSIHWYQQKPDQSPKLLIKYASESMSGVPSRFSGSGSGTDFTFTISSLEAEDAATYYCQQSHSWPFTFGPGTKVDIK
notes: Fab, E. coli lysate
  binding result: binds

B7: SEQ ID NO 27 (Fab, V domains shown)
VH: EVQLVESGGGLVQPGGSLRLSCAASQFIFSNHYMNWVRQAPGKGLEWIGEIRSKSSNGATHYAESVKGRFIISRDDNKNDLYLEMNSLKTEDTAEYYCAQNYYGSTPDYWGQGTLVTVS
VL: EIVLTQSPDFQSVTPKEKVTITCRASQFVGSSIHWYQQKPDQSPKLLIKYASESMSGVPSRFSGSGSGTDFTFTISSLEAEDAATYYCQQSHSWPFTFGPGTKVDIK
notes: Fab, E. coli lysate
  binding result: binds

B8: SEQ ID NO 13 (Fab, V domains shown)
VH: EVQLTESGGGLVQPGGSLRLSCAASGSIFSNHYMNWVRQAPGKGLEWIGEIRSKSSNSATHYAESVKGRFIISRDDNKTDLYLEMNSLKTEDTAEYYCARNYYGSTYDYWGQGTLVTVS
VL: EIVLTQSPDFQSVTPKEKVTITCRASQFVGSSIHWYQQKPDQSPKLLIKYASESMSGVPSRFSGSGSGTDFTFTISSLEAEDAATYYCQQSHSWPFTFGPGTKVDIK
notes: Fab, E. coli lysate
  binding result: binds

B9: SEQ ID NO 22 (Fab, V domains shown)
VH: EVQLVESGGGLVQPGGSLRLSCRASGSTFSNHWMNWVRQAPGKGLEWIGEIRSKSSNSATHYAESVKGRFIISRDDNGNSLTLEMNSLKTEDTAEYYCAQNYYGSTYDYWGQGTLVTVS
VL: EIVLTQSPDFQSVTPKEKVTITCRASQFVGSSIHWYQQKPDQSPKLLIKYASESMSGVPSRFSGSGSGTDFTFTISSLEAEDAATYYCQQSHSWPFTFGPGTKVDIK
notes: Fab, E. coli lysate
  binding result: binds

B10: SEQ ID NO 7 (Fab, V domains shown)
VH: EVQLTESGGGLVQPGGSLRLSCAASQFTFSNHWMNWVRQAPGKGLEWIGEIRSKSSNSATHYAESVKGRFIISRDDNKTDLYLEMNSLKTEDTAEYYCAQNYYGSTYDYWGQGTLVTVS
VL: EIVLTQSPDFQSVTPKEKVTITCRASQFVGSSIHWYQQKPDQSPKLLIKYASESMSGVPSRFSGSGSGTDFTFTISSLEAEDAATYYCQQSHSWPFTFGPGTKVDIK
notes: Fab, E. coli lysate
  binding result: binds

B11: SEQ ID NO 14 (Fab, V domains shown)
VH: EVQLTESGGGLVQPGGSLRLSCAASQFTFSNHWMNWVRQAPGKGLEWIGEIRSKSIYGATHYAESVKGRFIISRDGNGNDLYLEMNSLKTEDTAEYYCARNYYGSTPDYWGQGTLVTVS
VL: EIVLTQSPDFQSVTPKEKVTITCRASQFVGSSIHWYQQKPDQSPKLLIKYASESMSGVPSRFSGSGSGTDFTFTISSLEAEDAATYYCQQSHSWPFTFGPGTKVDIK
notes: Fab, E. coli lysate
  binding result: binds

B12: SEQ ID NO 10 (Fab, V domains shown)
VH: EVQLTESGGGLVQPGGSLRLSCRASGFIFSNHYMNWVRQAPGKGLEWIGEIRSKSINSATSYAESVKGRFIISRDDNKNDLTLEMNSLKTEDTAEYYCARNYYGSTYDYWGQGTLVTVS
VL: EIVLTQSPDFQSVTPKEKVTITCRASQFVGSSIHWYQQKPDQSPKLLIKYASESMSGVPSRFSGSGSGTDFTFTISSLEAEDAATYYCQQSHSWPFTFGPGTKVDIK
notes: Fab, E. coli lysate
  binding result: binds

B13: SEQ ID NO 18 (Fab, V domains shown)
VH: EVQLVESGGGLVQPGGSLRLSCRASQFTFSNHYMNWVRQAPGKGLEWIGEIRSKSSNGATSYAESVKGRFIISRDGNGNSLTLEMNSLKTEDTAEYYCARNYYGSTYDYWGQGTLVTVS
VL: EIVLTQSPDFQSVTPKEKVTITCRASQFVGSSIHWYQQKPDQSPKLLIKYASESMSGVPSRFSGSGSGTDFTFTISSLEAEDAATYYCQQSHSWPFTFGPGTKVDIK
notes: Fab, E. coli lysate
  binding result: binds

B14: SEQ ID NO 8 (Fab, V domains shown)
VH: EVQLTESGGGLVQPGGSLRLSCRASGSTFSNHYMNWVRQAPGKGLEWIGEIRSKSINGATHYAESVKGRFIISRDGNGNDLYLEMNSLKTEDTAEYYCAQNYYGSTYDYWGQGTLVTVS
VL: EIVLTQSPDFQSVTPKEKVTITCRASQFVGSSIHWYQQKPDQSPKLLIKYASESMSGVPSRFSGSGSGTDFTFTISSLEAEDAATYYCQQSHSWPFTFGPGTKVDIK
notes: Fab, E. coli lysate
  binding result: binds

B15: SEQ ID NO 26 (Fab, V domains shown)
VH: EVQLVESGGGLVQPGGSLRLSCRASQFTFSNHYMNWVRQAPGKGLEWIGEIRSKSIYSATHYAESVKGRFIISRDDNKNDLTLEMNSLKTEDTAEYYCARNYYGSTYDYWGQGTLVTVS
VL: EIVLTQSPDFQSVTPKEKVTITCRASQFVGSSIHWYQQKPDQSPKLLIKYASESMSGVPSRFSGSGSGTDFTFTISSLEAEDAATYYCQQSHSWPFTFGPGTKVDIK
notes: Fab, E. coli lysate
  binding result: binds

B16: SEQ ID NO 11 (Fab, V domains shown)
VH: EVQLTESGGGLVQPGGSLRLSCAASGFIFSNHWMNWVRQAPGKGLEWIGEIRSKSINGATSYAESVKGRFIISRDDNKTSLYLEMNSLKTEDTAEYYCAQNYYGSTYDYWGQGTLVTVS
VL: EIVLTQSPDFQSVTPKEKVTITCRASQFVGSSIHWYQQKPDQSPKLLIKYASESMSGVPSRFSGSGSGTDFTFTISSLEAEDAATYYCQQSHSWPFTFGPGTKVDIK
notes: Fab, E. coli lysate
  binding result: binds

B17: SEQ ID NO 20 (Fab, V domains shown)
VH: EVQLVESGGGLVQPGGSLRLSCRASGFTFSNHYMNWVRQAPGKGLEWIGEIRSKSSNSATSYAESVKGRFIISRDDNGNDLTLEMNSLKTEDTAEYYCAQNYYGSTPDYWGQGTLVTVS
VL: EIVLTQSPDFQSVTPKEKVTITCRASQFVGSSIHWYQQKPDQSPKLLIKYASESMSGVPSRFSGSGSGTDFTFTISSLEAEDAATYYCQQSHSWPFTFGPGTKVDIK
notes: Fab, E. coli lysate
  binding result: binds

B18: SEQ ID NO 4 (Fab, V domains shown)
VH: EVQLTESGGGLVQPGGSLRLSCRASGFIFSNHWMNWVRQAPGKGLEWIGEIRSKSSYSATSYAESVKGRFIISRDDNKTSLYLEMNSLKTEDTAEYYCAQNYYGSTYDYWGQGTLVTVS
VL: EIVLTQSPDFQSVTPKEKVTITCRASQFVGSSIHWYQQKPDQSPKLLIKYASESMSGVPSRFSGSGSGTDFTFTISSLEAEDAATYYCQQSHSWPFTFGPGTKVDIK
notes: Fab, E. coli lysate
  binding result: binds

B19: SEQ ID NO 21 (Fab, V domains shown)
VH: EVQLTESGGGLVQPGGSLRLSCAASQFTFSNHWMNWVRQAPGKGLEWIGEIRSKSIYGATHYAESVKGRFIISRDDNGNDLYLEMNSLKTEDTAEYYCARNYYGSTYDYWGQGTLVTVS
VL: EIVLTQSPDFQSVTPKEKVTITCRASQFVGSSIHWYQQKPDQSPKLLIKYASESMSGVPSRFSGSGSGTDFTFTISSLEAEDAATYYCQQSHSWPFTFGPGTKVDIK
notes: Fab, E. coli lysate
  binding result: binds
